According to publication PMC10397247:

Tests used:
Assay in all cases: two-hybrid library CCNG1;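 note: natural log of median RNA to DNA barcode read ratio; higher means stronger binding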
4H1446-bA = biological target: T1, 4H1446-bA
T1 chain: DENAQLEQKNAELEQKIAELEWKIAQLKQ

4H1828-bA = biological target: T2, 4H1828-bA
T2 chain: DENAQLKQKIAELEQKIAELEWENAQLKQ

4H1845-bA = biological target: T3, 4H1845-bA
T3 chain: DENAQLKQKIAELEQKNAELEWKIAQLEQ

4H2442-bA = biological target: T4, 4H2442-bA
T4 chain: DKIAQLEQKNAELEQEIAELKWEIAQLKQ

4H2576-bA = biological target: T5, 4H2576-bA
T5 chain: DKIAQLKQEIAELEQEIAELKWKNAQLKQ

4H2610-bA = biological target: T6, 4H2610-bA
T6 chain: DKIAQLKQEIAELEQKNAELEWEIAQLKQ

4H2618-bA = biological target: T7, 4H2618-bA
T7 chain: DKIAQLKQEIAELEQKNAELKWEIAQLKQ

4H2667-bA = biological target: T8, 4H2667-bA
T8 chain: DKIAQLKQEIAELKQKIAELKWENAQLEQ

4H2697-bA = biological target: T9, 4H2697-bA
T9 chain: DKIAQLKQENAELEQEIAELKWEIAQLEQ

4H2729-bA = biological target: T10, 4H2729-bA
T10 chain: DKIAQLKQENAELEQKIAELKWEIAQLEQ

4H3112-bA = biological target: T11, 4H3112-bA
T11 chain: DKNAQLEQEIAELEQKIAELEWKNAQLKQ

4H3185-bA = biological target: T12, 4H3185-bA
T12 chain: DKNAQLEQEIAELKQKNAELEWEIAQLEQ

4H3189-bA = biological target: T13, 4H3189-bA
T13 chain: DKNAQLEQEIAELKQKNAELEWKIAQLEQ

4H331-bA = biological target: T14, 4H331-bA
T14 chain: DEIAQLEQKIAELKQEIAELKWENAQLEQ

4H3354-bA = biological target: T15, 4H3354-bA
T15 chain: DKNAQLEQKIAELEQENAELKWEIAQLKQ

4H338-bA = biological target: T16, 4H338-bA
T16 chain: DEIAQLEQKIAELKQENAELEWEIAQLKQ

4H3427-bA = biological target: T17, 4H3427-bA
T17 chain: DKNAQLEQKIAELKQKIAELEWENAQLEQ

4H3606-bA = biological target: T18, 4H3606-bA
T18 chain: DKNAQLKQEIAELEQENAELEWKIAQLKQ

4H370-bA = biological target: T19, 4H370-bA
T19 chain: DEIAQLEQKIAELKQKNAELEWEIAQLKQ

4H3782-bA = biological target: T20, 4H3782-bA
T20 chain: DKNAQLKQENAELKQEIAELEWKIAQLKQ

4H3843-bA = biological target: T21, 4H3843-bA
T21 chain: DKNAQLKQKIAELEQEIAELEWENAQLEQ

4H3855-bA = biological target: T22, 4H3855-bA
T22 chain: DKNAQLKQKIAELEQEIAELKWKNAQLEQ

4H4001-bA = biological target: T23, 4H4001-bA
T23 chain: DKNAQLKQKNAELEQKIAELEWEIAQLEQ

4H454-bA = biological target: T24, 4H454-bA
T24 chain: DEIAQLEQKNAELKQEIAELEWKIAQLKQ

4H462-bA = biological target: T25, 4H462-bA
T25 chain: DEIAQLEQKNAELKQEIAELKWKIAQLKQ

4H568-bA = biological target: T26, 4H568-bA
T26 chain: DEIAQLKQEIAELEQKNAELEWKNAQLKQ

4H607-bA = biological target: T27, 4H607-bA
T27 chain: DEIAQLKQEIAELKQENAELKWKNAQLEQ

4H687-bA = biological target: T28, 4H687-bA
T28 chain: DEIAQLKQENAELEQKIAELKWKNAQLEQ

4H717-bA = biological target: T29, 4H717-bA
T29 chain: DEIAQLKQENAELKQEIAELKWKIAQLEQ

4H72-bA = biological target: T30, 4H72-bA
T30 chain: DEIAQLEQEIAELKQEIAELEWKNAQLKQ

4H754-bA = biological target: T31, 4H754-bA
T31 chain: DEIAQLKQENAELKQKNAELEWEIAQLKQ

4H797-bA = biological target: T32, 4H797-bA
T32 chain: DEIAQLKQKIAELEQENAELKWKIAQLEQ

4H883-bA = biological target: T33, 4H883-bA
T33 chain: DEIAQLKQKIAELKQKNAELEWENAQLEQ

4H908-bA = biological target: T34, 4H908-bA
T34 chain: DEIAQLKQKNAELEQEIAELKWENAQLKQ

4H918-bA = biological target: T35, 4H918-bA
T35 chain: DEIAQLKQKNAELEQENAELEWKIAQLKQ

4H953-bA = biological target: T36, 4H953-bA
T36 chain: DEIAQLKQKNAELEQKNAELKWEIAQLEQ

4H967-bA = biological target: T37, 4H967-bA
T37 chain: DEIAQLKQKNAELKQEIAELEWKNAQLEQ

4H2162-bH = biological target: T38, 4H2162-bH
T38 chain: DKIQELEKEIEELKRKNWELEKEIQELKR

4H2233-bH = biological target: T39, 4H2233-bH
T39 chain: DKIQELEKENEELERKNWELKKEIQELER

4H2253-bH = biological target: T40, 4H2253-bH
T40 chain: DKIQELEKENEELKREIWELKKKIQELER

4H235-bH = biological target: T41, 4H235-bH
T41 chain: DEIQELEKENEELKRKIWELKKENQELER

4H2444-bH = biological target: T42, 4H2444-bH
T42 chain: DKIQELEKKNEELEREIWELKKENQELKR

4H2518-bH = biological target: T43, 4H2518-bH
T43 chain: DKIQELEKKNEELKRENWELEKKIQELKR

4H2585-bH = biological target: T44, 4H2585-bH
T44 chain: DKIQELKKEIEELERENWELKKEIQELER

4H264-bA = biological target: T45, 4H264-bA
T45 chain: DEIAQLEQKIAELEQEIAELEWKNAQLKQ

4H264-bH = biological target: T46, 4H264-bH
T46 chain: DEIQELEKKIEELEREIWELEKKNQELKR

4H2760-bH = biological target: T47, 4H2760-bH
T47 chain: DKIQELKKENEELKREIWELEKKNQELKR

4H2859-bH = biological target: T48, 4H2859-bH
T48 chain: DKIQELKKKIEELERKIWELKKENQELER

4H2931-bH = biological target: T49, 4H2931-bH
T49 chain: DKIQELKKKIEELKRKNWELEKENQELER

4H3041-bH = biological target: T50, 4H3041-bH
T50 chain: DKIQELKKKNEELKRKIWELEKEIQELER

4H3297-bH = biological target: T51, 4H3297-bH
T51 chain: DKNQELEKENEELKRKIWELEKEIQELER

4H3364-bH = biological target: T52, 4H3364-bH
T52 chain: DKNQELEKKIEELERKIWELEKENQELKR

4H3381-bH = biological target: T53, 4H3381-bH
T53 chain: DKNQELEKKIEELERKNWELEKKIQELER

4H349-bH = biological target: T54, 4H349-bH
T54 chain: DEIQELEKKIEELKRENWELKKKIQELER

4H56-bH = biological target: T55, 4H56-bH
T55 chain: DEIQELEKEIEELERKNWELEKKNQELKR

4H730-bH = biological target: T56, 4H730-bH
T56 chain: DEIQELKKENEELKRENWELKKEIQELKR

4H796-bH = biological target: T57, 4H796-bH
T57 chain: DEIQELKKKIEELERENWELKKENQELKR

4H932-bH = biological target: T58, 4H932-bH
T58 chain: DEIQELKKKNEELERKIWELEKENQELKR

4H949-bH = biological target: T59, 4H949-bH
T59 chain: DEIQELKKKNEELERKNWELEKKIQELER

4H348-bA = biological target: T60, 4H348-bA
T60 chain: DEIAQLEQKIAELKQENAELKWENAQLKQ

4H492-bN = biological target: T61, 4H492-bN
T61 chain: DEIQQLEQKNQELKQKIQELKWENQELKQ

P9A-bH = biological target: T62, P9A-bH
T62 chain: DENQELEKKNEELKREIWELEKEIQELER

DENAQLEQKNAELEQKIAELEWKIAQLKQ [4H1446-bA] gave an interaction score (4H1446-bA) of 0.569, an interaction score (4H1828-bA) of -0.523 and an interaction score (4H1845-bA) of -0.389. For the same binder, the interaction score (4H2442-bA) was -1.04, the interaction score (4H2576-bA) was 1.12 and the interaction score (4H2610-bA) was -0.647. The interaction score (4H2618-bA) was 0.00602, the interaction score (4H2667-bA) was 0.0853 and the interaction score (4H2697-bA) was -0.0949. It also gave an interaction score (4H2729-bA) of 1.08, an interaction score (4H3112-bA) of 0.505 and an interaction score (4H3185-bA) of -0.0587. It also gave an interaction score (4H3189-bA) of -0.621, an interaction score (4H331-bA) of 1.79 and an interaction score (4H3354-bA) of -0.413. For the same binder, the interaction score (4H338-bA) was -0.241, the interaction score (4H3427-bA) was 0.256 and the interaction score (4H3606-bA) was 0.144. The interaction score (4H370-bA) was 0.183, the interaction score (4H3782-bA) was 0.586 and the interaction score (4H3843-bA) was 2.01. It also gave an interaction score (4H3855-bA) of 0.209, an interaction score (4H4001-bA) of 1.86 and an interaction score (4H454-bA) of -0.131. It also gave an interaction score (4H462-bA) of -0.194, an interaction score (4H568-bA) of -0.418 and an interaction score (4H607-bA) of -0.535. It also gave an interaction score (4H687-bA) of -0.607, an interaction score (4H717-bA) of -0.295 and an interaction score (4H72-bA) of 1.16. It also gave an interaction score (4H754-bA) of -0.817, an interaction score (4H797-bA) of -1.42 and an interaction score (4H883-bA) of 0.0122. The interaction score (4H908-bA) was -0.405, the interaction score (4H918-bA) was -0.0235 and the interaction score (4H953-bA) was -0.416. For the same binder, the interaction score (4H967-bA) was -0.635.

With DKIQELEKEIEELKRKNWELEKEIQELKR [4H2162-bH] the interaction score (4H2162-bH) was 0.161, the interaction score (4H2233-bH) was 0.284 and the interaction score (4H2253-bH) was -0.234. It also gave an interaction score (4H235-bH) of 0.377, an interaction score (4H2444-bH) of 0.28 and an interaction score (4H2518-bH) of 1. For the same binder, the interaction score (4H2585-bH) was 0.942, the interaction score (4H264-bA) was 0.1 and the interaction score (4H264-bH) was 0.0138. The interaction score (4H2760-bH) was 0.202, the interaction score (4H2859-bH) was 0.783 and the interaction score (4H2931-bH) was 0.798. It also gave an interaction score (4H3041-bH) of 0.641, an interaction score (4H3297-bH) of 0.0958 and an interaction score (4H3364-bH) of 0.498. It also gave an interaction score (4H3381-bH) of 0.0641, an interaction score (4H349-bH) of 0.54 and an interaction score (4H56-bH) of 0.668. The interaction score (4H730-bH) was -1.99, the interaction score (4H796-bH) was -0.188 and the interaction score (4H932-bH) was -0.531. For the same binder, the interaction score (4H949-bH) was -1.64.

Binder DENAQLKQKIAELEQKIAELEWENAQLKQ [4H1828-bA] has an interaction score (4H1828-bA) of 0.663, an interaction score (4H1845-bA) of -0.511 and an interaction score (4H2442-bA) of 0.499. For the same binder, the interaction score (4H2576-bA) was 0.0647, the interaction score (4H2618-bA) was 0.132 and the interaction score (4H2667-bA) was 0.0606. The interaction score (4H2729-bA) was -0.137, the interaction score (4H3112-bA) was 1.15 and the interaction score (4H3185-bA) was -0.351. The interaction score (4H331-bA) was -0.739, the interaction score (4H3354-bA) was 0.0682 and the interaction score (4H338-bA) was -1.89. The interaction score (4H3427-bA) was 0.974, the interaction score (4H348-bA) was -0.144 and the interaction score (4H3782-bA) was 0.85. For the same binder, the interaction score (4H3855-bA) was -0.259, the interaction score (4H4001-bA) was -0.562 and the interaction score (4H454-bA) was -1.06. It also gave an interaction score (4H492-bN) of -2.71, an interaction score (4H568-bA) of 0.727 and an interaction score (4H607-bA) of -0.523. The interaction score (4H687-bA) was -0.0353, the interaction score (4H717-bA) was -1.09 and the interaction score (4H72-bA) was -0.902. For the same binder, the interaction score (4H754-bA) was -1.2, the interaction score (4H797-bA) was -0.153 and the interaction score (4H883-bA) was -0.928. For the same binder, the interaction score (4H908-bA) was -0.276, the interaction score (4H918-bA) was -0.412 and the interaction score (4H953-bA) was -0.126. It also gave an interaction score (4H967-bA) of -0.0426 and an interaction score (P9A-bH) of 0.475.
